Source: patent publication US20090269810
Where a chain is given by its changes, count along the chain named.

B1: wild-type human ERp23 (protein)
chain: DRAPLTATAPQLDDEEMYSAHMPAHLRCDACRAVAYQMWQNLAKAETKLHTSNSGGRRELSELVYTDVLDRSCSRNWQDYGVREVDQVKRLTGPGLSEGPEPSISVMVTGGPWPTRLSRTCLHYLGEFGEDQIYEAHQQGRGALEALLCGGPQGACSEKVSATREEL
B2: human ERp23 Cys50-178Ser mutant (protein)
chain: B1 chain with C28S, C156S
B3: human ERp23 Cys178Ser mutant (protein)
chain: B1 chain with C156S
B4: human ERp23 Cys143Ser mutant (protein)
chain: B1 chain with C121S
B5: human ERp23 Cys95Ser mutant (protein)
chain: B1 chain with C73S
B6: human ERp23 Cys50Ser mutant (protein)
chain: B1 chain with C28S
B7: human ERp23 Cys171Ser mutant (protein)
chain: B1 chain with C149S
B8: human ERp23 Cys53Ser mutant (protein)
chain: B1 chain with C31S

Biological target: HA-tagged mini HC (VH-CH1)

Row | Protein | oxidation of the CH1 domain of the mini HC | percentage of the fully oxidized form of the mini HC
1 | B1 | co-expression of wild-type human ERp23 resulted in oxidation of the CH1 domain in a portion of the HC even in the absence of LC | fully oxidizes ˜24% of the mini HC
2 | B2 | only the Cys50-178Ser mutant still retained activity | 
3 | B3 | also showed some activity, although it was slightly weaker than that observed with wild-type ERp23 or the Cys50Ser mutant | 
4 | B4 | All of the remaining single cysteine mutants had significantly reduced activity, which in most cases was similar to that observed when no ERp23 was co-expressed | 
5 | B5 | All of the remaining single cysteine mutants had significantly reduced activity, which in most cases was similar to that observed when no ERp23 was co-expressed | 
6 | B6 |  | showed a similar ability to oxidize the CH1 domain (i.e., 20%)
7 | B7 | All of the remaining single cysteine mutants had significantly reduced activity, which in most cases was similar to that observed when no ERp23 was co-expressed | 
8 | B8 | All of the remaining single cysteine mutants had significantly reduced activity, which in most cases was similar to that observed when no ERp23 was co-expressed | 
